Experimental data: patent US20040171074A1, “Structures of substrate binding pockets of SCF complexes” (MOUNT SINAI HOSPITAL, priority 2002, published 2004)
Non-standard residues stand in square brackets, D forms with d. pT = C[C@@H](OP(=O)(O)O)[C@H](N)C(=O)O

T1: Cdc4 (Saccharomyces cerevisiae, UniProt P07834)
T1 sequence (P07834 1-779): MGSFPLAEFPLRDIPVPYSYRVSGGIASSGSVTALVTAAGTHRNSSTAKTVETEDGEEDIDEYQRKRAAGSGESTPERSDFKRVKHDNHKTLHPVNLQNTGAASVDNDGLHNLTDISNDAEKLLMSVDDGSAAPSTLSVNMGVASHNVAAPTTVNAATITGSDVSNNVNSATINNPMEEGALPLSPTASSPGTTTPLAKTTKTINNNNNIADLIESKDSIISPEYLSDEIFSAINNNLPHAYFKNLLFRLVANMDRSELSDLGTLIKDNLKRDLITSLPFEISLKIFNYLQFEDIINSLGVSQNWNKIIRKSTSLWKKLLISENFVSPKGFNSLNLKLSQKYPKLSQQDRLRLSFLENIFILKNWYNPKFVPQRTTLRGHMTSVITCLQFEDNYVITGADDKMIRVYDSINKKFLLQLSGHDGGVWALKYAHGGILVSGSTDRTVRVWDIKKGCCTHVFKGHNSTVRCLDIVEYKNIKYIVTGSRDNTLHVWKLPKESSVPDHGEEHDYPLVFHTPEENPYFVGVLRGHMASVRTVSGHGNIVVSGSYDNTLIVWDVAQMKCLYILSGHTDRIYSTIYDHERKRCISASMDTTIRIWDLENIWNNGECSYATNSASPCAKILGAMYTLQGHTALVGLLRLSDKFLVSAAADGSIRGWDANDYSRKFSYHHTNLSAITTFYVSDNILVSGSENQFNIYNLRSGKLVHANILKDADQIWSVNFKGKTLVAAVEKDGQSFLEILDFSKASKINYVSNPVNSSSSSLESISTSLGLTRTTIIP

T2: phospho-Sic1 isoforms (Saccharomyces cerevisiae, UniProt P38634)
T2 construct: His6 (N); made in house; host or cells: bacteria (Sic1, Cdc4-GST-Skp1); insect cells (Cdc53-Rbx1)
T2 sequence (P38634 1-284): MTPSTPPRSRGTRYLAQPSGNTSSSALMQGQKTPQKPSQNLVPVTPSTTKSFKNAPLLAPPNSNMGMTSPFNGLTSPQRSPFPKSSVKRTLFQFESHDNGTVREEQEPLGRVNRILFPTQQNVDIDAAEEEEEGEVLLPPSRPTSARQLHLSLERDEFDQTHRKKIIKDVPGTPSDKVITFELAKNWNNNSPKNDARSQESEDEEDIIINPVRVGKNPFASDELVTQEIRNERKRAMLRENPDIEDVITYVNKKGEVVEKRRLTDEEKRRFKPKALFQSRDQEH

B1: W717N/V384N: double mutant cdc4 polypeptide compromised for selection at P−1 (protein)
chain: MGSFPLAEFPLRDIPVPYSYRVSGGIASSGSVTALVTAAGTHRNSSTAKTVETEDGEEDIDEYQRKRAAGSGESTPERSDFKRVKHDNHKTLHPVNLQNTGAASVDNDGLHNLTDISNDAEKLLMSVDDGSAAPSTLSVNMGVASHNVAAPTTVNAATITGSDVSNNVNSATINNPMEEGALPLSPTASSPGTTTPLAKTTKTINNNNNIADLIESKDSIISPEYLSDEIFSAINNNLPHAYFKNLLFRLVANMDRSELSDLGTLIKDNLKRDLITSLPFEISLKIFNYLQFEDIINSLGVSQNWNKIIRKSTSLWKKLLISENFVSPKGFNSLNLKLSQKYPKLSQQDRLRLSFLENIFILKNWYNPKFVPQRTTLRGHMTSNITCLQFEDNYVITGADDKMIRVYDSINKKFLLQLSGHDGGVWALKYAHGGILVSGSTDRTVRVWDIKKGCCTHVFKGHNSTVRCLDIVEYKNIKYIVTGSRDNTLHVWKLPKESSVPDHGEEHDYPLVFHTPEENPYFVGVLRGHMASVRTVSGHGNIVVSGSYDNTLIVWDVAQMKCLYILSGHTDRIYSTIYDHERKRCISASMDTTIRIWDLENIWNNGECSYATNSASPCAKILGAMYTLQGHTALVGLLRLSDKFLVSAAADGSIRGWDANDYSRKFSYHHTNLSAITTFYVSDNILVSGSENQFNIYNLRSGKLVHANILKDADQINSVNFKGKTLVAAVEKDGQSFLEILDFSKASKINYVSNPVNSSSSSLESISTSLGLTRTTIIP
B2: WT: wild type yeast Cdc4 F-box protein (protein, UniProt P07834 1-779, looked up)
Cell division control protein …: MGSFPLAEFPLRDIPVPYSYRVSGGIASSGSVTALVTAAGTHRNSSTAKTVETEDGEEDIDEYQRKRAAGSGESTPERSDFKRVKHDNHKTLHPVNLQNTGAASVDNDGLHNLTDISNDAEKLLMSVDDGSAAPSTLSVNMGVASHNVAAPTTVNAATITGSDVSNNVNSATINNPMEEGALPLSPTASSPGTTTPLAKTTKTINNNNNIADLIESKDSIISPEYLSDEIFSAINNNLPHAYFKNLLFRLVANMDRSELSDLGTLIKDNLKRDLITSLPFEISLKIFNYLQFEDIINSLGVSQNWNKIIRKSTSLWKKLLISENFVSPKGFNSLNLKLSQKYPKLSQQDRLRLSFLENIFILKNWYNPKFVPQRTTLRGHMTSVITCLQFEDNYVITGADDKMIRVYDSINKKFLLQLSGHDGGVWALKYAHGGILVSGSTDRTVRVWDIKKGCCTHVFKGHNSTVRCLDIVEYKNIKYIVTGSRDNTLHVWKLPKESSVPDHGEEHDYPLVFHTPEENPYFVGVLRGHMASVRTVSGHGNIVVSGSYDNTLIVWDVAQMKCLYILSGHTDRIYSTIYDHERKRCISASMDTTIRIWDLENIWNNGECSYATNSASPCAKILGAMYTLQGHTALVGLLRLSDKFLVSAAADGSIRGWDANDYSRKFSYHHTNLSAITTFYVSDNILVSGSENQFNIYNLRSGKLVHANILKDADQIWSVNFKGKTLVAAVEKDGQSFLEILDFSKASKINYVSNPVNSSSSSLESISTSLGLTRTTIIP

Legend:
[1] = biological target: T1, Cdc4; conditions: cyclin E derived nine-residue CPD phosphopeptide binding Cdc4 (Nash et al., 2001); cited from earlier work
[2] = tested on: cdc4Δ strain; assay: plasmid shuffle assay: complementation of a cdc4Δ strain by CDC4 alleles; type: cell-based, yeast; conditions: viability of cdc4Δ strain on 5-FOA, 2 days at 30° C.
Protocol: (§1) All mutants on a TRP1 ARS CEN plasmid were transformed into a cdc4Δ strain (MT 1259) containing a wildtype copy of CDC4 on a URA3 ARS CEN plasmid. Cells were plated on either Trp^−Ura^− or 5-FOA medium for 2 days at 30° C. Viable cells on 5-FOA were grown in Trp medium and transformed with either wild type GAL1-SIC1, GAL1-SIC T45A, or GAL1-SIC T33V on a LEU2 ARS CEN pasmid. Cells were then plated on Leu- Trp-plates containing either glucose or galactose and incubated for 2 days at 30° C.
(§2) Cdc4 functional assays. CDC4 mutant alleles were assessed for complementation of a cdc4A strain in a plasmid shuffle assay (Nash et al., 2001). Sensitivity to SIC1 dosage was determined by transformation with pMT837 (GAL1-SIC1) or pMT767 (GAL1-SIC1^T33V) and plating on glucose medium or galactose medium. For in vitro capture of phospho-Sic1 by Cdc4, 0.5 μg of bacterially-expressed ^HIS6Sic1 was phosphorylated with immobilized Cln2-Cdc28 kinase from baculovirus-infected Sf9 cells and then incubated with 1 μg of immobilized wild type or mutant Cdc4^263-744-GST-Skp1, at 4° C. for 1 hr, washed 4 times and visualized by anti-Sic1 immunoblot. For isoelectric focusing (IEF)-2D gel analyses, an evenly distributed pool of phospho-Sic1 isoforms was generated by combining different time points in a Sic1 phosphorylation reaction. 2.5 μg of the phospho-Sic1 pool was bound to 5 μg of immobilized wild type or mutant Cdc4^1-744-GST-Skp1. Captured isoforms were separated by denaturing IEF-2D gel electrophoresis using pH3-10NL Immobiline gel strips (Amersham) and visualized by anti-Sic1 immunoblot. Alternatively, the pool of phospho-Sic1 isoforms was incubated in solution with a ubiquitination reaction mix containing ATP, ubiquitin, yeast E1, Cdc34 and either wild type or mutant SCF^Cdc4 complex, composed of a 1:1 ratio of bacterial Cdc4-GST-Skp1 and insect cell-produced Cdc53-Rbx1, at 30° C. for 1 h as previously described (Nash et al., 2001).

[3] = tested on: phospho-Sic1; assay: P-Sic1 pull down: in vitro capture of phospho-Sic1 on immobilized wild type or mutant Cdc4-GST-Skp1, anti-Sic1 immunoblot; type: binding, yeast; conditions: Sic1 phosphorylated with Cln2-Cdc28, captured onto GST-Skp1/Cdc4 resin, anti-Sic1 detection
Protocol: (§3) Mutational analysis of the CPD binding surface. Mutants were tested in vitro by ability to bind phosphorylated Sic1 and then captured onto GST-Skp1/Cdc4 resin and detected with anti-sic1 antibody. Mutants were tested in vivo by ability to degrade GAL1-SIC1 or various phosphorylation mutants. Sites are as follows: 3=Thr 33, Thr 45, Ser 76; 4=Thr 5, Thr 33, Thr 45, Ser 76; 5=Thr 2, Thr 5, Thr 33, Thr 45, Ser 76; 6=Thr 2, Thr 5, Thr 33, Thr 45, Ser 69, Ser 76; 7=Thr 2, Thr 5, Thr 33, Thr 45, Ser 69, Ser 76, Ser 80. GAL1-SIC1 plasmids were transformed into a cdc4Δ strain containing a copy of CDC4 on a TRP1 ARS CEN plasmid. Strains were incubated for 2 days at 30° C.
(§4) Bacterially expressed His6-Sic1 was phosphorylated with Cln2-Cdc28 kinase purified from baculovirus infected Sf9 cells as described before (Nature paper). 1 ug of WT or mutant Cdc4-GST-Skp1, immoblized on GSH-Sepharose resin, was incubated with 0.5 ug phospho-Sic1 at 4 C for 1 h and washed 4 times. Captured complexes were resolved on SDS-PAGE and Sic1 visualized by anti-Sic1 Western blotting and ECL. For IEF-2D analysis, several Sic1 phosphorylation reactions were carried out for different time periods to obtain a spectrum of Sic1 that were phosphorylated at different numbers of its nine CDK sites. This pool of phospho-Sic1 (2.5 ug) was incubated with 5 μg of WT or mutant Cdc4-GST-Skp1 as described above. Different phosphorylation states of Sic1 were separated by denaturing isoelectric focusing (IEF)-2D gel electrophoresis and visualized by anti-Sic1 Western blotting and ECL. IEF was performed using pH 3-10NL Immobiline gel strips and IPGphore IEF system (Amersham pharmacia).
as §2

[4] = tested on: phospho-Sic1 isoforms; assay: IEF-2D gel analysis of Sic1 phospho-isoforms captured by wild type or mutant Cdc4-GST-Skp1; type: binding, yeast; conditions: pool of Sic1 phosphorylated on 1 to 9 sites
Protocol: as §4
Cdc4 functional assays. CDC4 mutant alleles were assessed for complementation of a cdc4A strain in a plasmid shuffle assay (Nash et al., 2001). Sensitivity to SIC1 dosage was determined by transformation with pMT837 (GAL1-SIC1) or pMT767 (GAL1-SIC1^T33V) and plating on glucose medium or galactose medium. […]

[5] = tested on: cdc4Δ strain overexpressing SIC1; assay: sensitivity to SIC1 dosage: GAL1-SIC1 overexpression in strains bearing CDC4 alleles; type: cell-based, yeast; conditions: galactose, 2 days at 30° C.; for gal Sic1T33V: GAL1-SIC1 T33V (partially stabilized Sic1); for gal Sic1T45A: GAL1-SIC1 T45A; for gal Sic1 wt: GAL1-SIC1 wild type
Protocol: as §3, §1
Since the cell viability assay nay be masking subtle functional roles for the conserved Cdc4 residues, function was assayed in vivo under more stringent conditions in which Sic1 wt or the stabilized mutants, Sic1 (T33V) or Sic1(T45A) are over-expressed under a galactose promoter. This should amplify defects in cdc4 function. Under these conditions, Trp 717, Tyr 548 and the double mutant K404D/R443D are lethal showing that these residues are in fact important for functions
as §2

[6] = biological target: T2, phospho-Sic1 isoforms; assay: in vitro ubiquitination of phospho-Sic1 isoforms by wild type or mutant SCFCdc4 complex; type: biochemical, yeast; conditions: Cdc34, ubiquitin, ATP, 1 h at 30° C.

Molecule | Kd [1] | shuffle [2] | shuffle ([2]; listed as V384N/W717N) | P-Sic1 pull down [3] | P-Sic1 pull down ([3]; listed as V384N/W717N) | Sic1 phospho-isoforms captured (number of phosphorylated sites) [4] | gal Sic1T33V [5] | gal Sic1T45A [5] | gal Sic1 wt [5] | Sic1 phospho-isoforms captured (number of phosphorylated sites) ([4]; listed as Wild type Cdc4) | conversion of Sic1 phosphorylated on four or five sites to oligo-ubiquitinated species [6]
Ac-GLL[pT]PPQSG-NH2 [CPD phosphopeptide] | 1000 nM | – | – | – | – | – | – | – | – | – | –
B1 | – | alive | viable | bind | fully competent | as few as four | dead | dead | alive | – | –
B2 | – | alive | – | bind | – | – | alive | dead | alive | six or more sites | unable
